According to patent US20180118786A1, “NOVEL lNHIBITORS OF THE ENZYME ACTIVATED FACTOR XII (FXIIA)” (ECOLE POLYTECHNIQUE FEDERALE DE LAUSANNE (EPFL), priority 2015, published 2018):

Columns and labels:
[1] = tested on: thrombin generation in platelet poor plasma; experiment: Thrombin generation assay by CAT, TF-triggered or without trigger; format: biochemical, human; set-up: lag time: unit not given here; conditions: 100 μg/mL inhibitor
Procedure: (§1) Thrombin generation was performed as previously described with some modifications.30 In brief, 60 μL platelet poor plasma (PPP), 20 μL FXIIa inhibitor/HA buffer (Hepes 20 mM, NaCl 140 mM, pH 7.4, 5 mg/mL BSA), and 20 μL PPP reagent, PPP LOW reagent, MP reagent or Actin FS (1:170 diluted in HA buffer) were mixed in a 96-well microtiter plate (Immulon 2HB; Thermo Fisher Scientific) and incubated for 15 min at 37° C. Thrombin generation was triggered by the addition of 20 μL of substrate/calcium chloride buffer (FLUKA) at 37° C. Samples were tested in triplicate for each condition. Fluorogenic thrombin substrate hydrolysis was measured every 20 s for 120 min on a microplate fluorometer (Fluoroskan Ascent FL; Thermo Fisher Scientific) with a 390/460-nm (excitation/emission) filter set. Data analysis was performed on the Thrombinoscope software (Synapse By). PPP reagent (TF […], PL 4 μM), PPP LOW reagent (TF […], PL 4 μM), MP reagent (PL 4 μM), thrombin calibrator and FLUKA were purchased from Synapse By.
Venous blood was collected from healthy volunteers by antecubital venipuncture with 19-gauge needles in 3,2% (w/v) citrated Monovette plastic tubes. In order to minimize contact activation, the first collection tube containing EDTA was discarded according to standard procedures. […] Blood was then processed to PPP by an initial centrifugation step at 2,000 g for 5 min followed by a second centrifugation step at 10,000 g for 10 min. Plasma aliquots were stored at −80 until analysis.

[2] = tested on: thrombin generation in platelet poor plasma; experiment: as above; format: biochemical, human; conditions: 1 pM TF, 100 μg/mL inhibitor
FXIIa = conditions: cited from earlier work
[3] = tested on: intrinsic pathway of coagulation; experiment: aPTT in human plasma (Example 1); format: biochemical; conditions: citrated platelet poor plasma, 100 μg/mL inhibitor
Procedure: aPTT, PT and FXII coagulant activity (FXII:c) measurements Coagulation times (aPTT, PT) and FXIIa activity were determined in human plasma using an automated blood coagulation analyzer (Sysmex CS-5100, Siemens, Eschborn, Germany) with according to the manufacturer's instructions (Siemens). Extrinsic coagulation was triggered with Innovin® (recombinant human tissue factor, synthetic phospholipids and calcium in stabilized HEPES buffer system; Dade Behring/Simens). Intrinsic coagulation was triggered with Pathromtin* SL (Siemens). Human plasma used in this study was derived from a pool of fresh frozen plasma units provided by the Service Regional Vaudois de Transfusion Sanguine, Switzerland.
Coagulation times (aPTT, PT) and FXIIa activity were determined, at least in duplicate, in human plasma using an automated blood coagulation analyzer (Sysmex CA-7000) with standard reagents according to the manufacturer's instructions (Siemens Healthcare, Eschborn, Germany). Human plasma used in this study was derived from a pool of fresh frozen plasma units provided by the Service Regional Vaudois de Transfusion Sanguine, Switzerland.

trypsin = trypsin (Homo sapiens, UniProt P07477); experiment: Specificity FXII618 vs CTI, trypsin; format: biochemical; conditions: at a concentration as low as 20 nM
[4] = tested on: intrinsic pathway (contact activation); experiment: Thrombin generation assay by CAT triggered by ellagic acid; format: biochemical, human; conditions: ellagic acid trigger, 100 μg/mL
Procedure: as §1

[5] = absence of extrinsic- or intrinsic-specific trigger

Chain of FXIIa (P00748 373-615 limits assumed, other chains not shown): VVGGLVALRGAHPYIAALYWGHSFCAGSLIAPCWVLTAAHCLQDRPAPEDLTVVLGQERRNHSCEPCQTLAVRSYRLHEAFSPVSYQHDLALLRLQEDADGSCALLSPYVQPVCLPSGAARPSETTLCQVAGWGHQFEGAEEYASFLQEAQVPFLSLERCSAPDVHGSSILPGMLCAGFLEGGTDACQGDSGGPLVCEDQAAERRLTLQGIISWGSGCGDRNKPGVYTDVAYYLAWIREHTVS

B1: CTI: 13.6 kDa protein isolated from corn seeds inhibiting FXIIa (protein)
chain: SAGTSCVPGWAIPHNPLPSCRWYVTSRTCGIGPRLPWPELKRRCCRELADIPAYCRCTALSILMDGAIPPGPDAQLEGRLEDLPGCPREVQRGFAATLVTEAECNLATISGVAECPWILGGGTMPSK
In the case of B1, the lag time ([1]; 0.25 pM TF) is reported as 8.0±0.2, the lag time [1, 5] is reported as 38.7±1.9 and the peak [1, 5] is reported as 78.0±6.8. The “effect on thrombin generation” value [2] was “no significant effect”, the Ki (FXIIa) was 0.024 µM and the aPTT [3] was 65.4 ± 0.5 s. The “inhibition of trypsin activity” value (trypsin) was “significantly inhibits”, the “reduction of ETP” value [4] was about 90% and the reduction of peak [4] was over 96%.
